In article PMC10998593:

Molecular target: GST-NSUN5 (UniProt Q96P11 1-429)
Assay: EMSA

Sequence of GST-NSUN5 (Q96P11 whole entry): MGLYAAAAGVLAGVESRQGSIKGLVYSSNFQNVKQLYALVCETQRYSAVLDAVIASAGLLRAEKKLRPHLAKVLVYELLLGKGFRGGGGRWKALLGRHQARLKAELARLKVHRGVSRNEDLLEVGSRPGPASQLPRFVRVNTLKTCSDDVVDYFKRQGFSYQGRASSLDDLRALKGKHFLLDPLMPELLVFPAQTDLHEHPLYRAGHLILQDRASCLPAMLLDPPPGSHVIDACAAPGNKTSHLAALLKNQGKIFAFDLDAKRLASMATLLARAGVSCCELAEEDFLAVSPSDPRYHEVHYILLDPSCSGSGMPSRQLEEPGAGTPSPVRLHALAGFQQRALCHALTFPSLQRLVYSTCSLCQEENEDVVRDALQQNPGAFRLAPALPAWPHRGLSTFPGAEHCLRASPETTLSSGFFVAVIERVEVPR

GUCCUUCGGGCUGGUGACAGGG (ssRNA) [Probe1 (Oligo 1), CTNNB1]
binding result: binds
